Publication PMC8748714 (2022)
Numbering of substitutions follows the chain as printed. No end group written: not given here.

T1: GLP-1R E138A (Homo sapiens)
T1 chain: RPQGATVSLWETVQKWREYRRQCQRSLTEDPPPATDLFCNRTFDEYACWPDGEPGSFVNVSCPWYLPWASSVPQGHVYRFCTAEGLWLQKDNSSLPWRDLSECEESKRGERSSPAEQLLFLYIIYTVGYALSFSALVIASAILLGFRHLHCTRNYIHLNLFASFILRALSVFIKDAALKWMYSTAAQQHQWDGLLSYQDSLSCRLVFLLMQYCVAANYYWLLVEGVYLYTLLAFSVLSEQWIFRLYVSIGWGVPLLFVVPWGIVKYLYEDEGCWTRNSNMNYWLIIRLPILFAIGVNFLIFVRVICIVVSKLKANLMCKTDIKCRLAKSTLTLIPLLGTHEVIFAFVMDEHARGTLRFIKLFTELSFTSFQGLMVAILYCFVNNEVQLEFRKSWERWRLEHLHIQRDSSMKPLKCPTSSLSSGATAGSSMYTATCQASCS

T2: GLP-1R V194A (Homo sapiens)
T2 chain: T1 chain with A115E, V171A

T3: GLP-1R S193A (Homo sapiens)
T3 chain: T1 chain with A115E, S170A

T4: GLP-1R P137A (Homo sapiens)
T4 chain: T1 chain with P114A, A115E

T5: GLP-1R Y145A (Homo sapiens)
T5 chain: T1 chain with A115E, Y122A

T6: GLP-1R L144A (Homo sapiens)
T6 chain: T1 chain with A115E, L121A


Legend:
GLP-1R E138A = molecular target: T1, GLP-1R E138A
GLP-1R V194A = molecular target: T2, GLP-1R V194A
GLP-1R S193A = molecular target: T3, GLP-1R S193A
GLP-1R P137A = molecular target: T4, GLP-1R P137A
GLP-1R Y145A = molecular target: T5, GLP-1R Y145A
GLP-1R L144A = molecular target: T6, GLP-1R L144A

IC50 (GLP-1R E138A) [nM] | IC50 (GLP-1R V194A) [nM] | IC50 (GLP-1R S193A) [nM] | IC50 (GLP-1R P137A) [nM] | IC50 (GLP-1R Y145A) [nM] | IC50 (GLP-1R L144A) [nM] | Binder
6.92 | 6.17 | 5.01 | 40.7 | 6.17 | 11 | HAEGTFTSDVSSYLEGQAAKEFIAWLVKGR (not fully specified (C-terminus)) [glucagon-like peptide-1]
45.7 | 77.6 | 14.8 | 74.1 | 24.5 | 51.3 | HSQGTFTSDYSKYLDSRRAQDFVQWLMNTKRNRNNIA [oxyntomodulin]
